Measured values: article PMC4396682

Experiments:
[1] = target: SpoVM (synthesized 26-amino-acid peptide), adsorbed on spherical supported lipid bilayers (Bacillus subtilis); test: fluorescence microscopy of retention on bead-supported lipid bilayers after competition; 0.006 uM SpoIVA^AF488 adsorbed on SpoVM-SSLBs with 4 mM ATP in buffer A with 10 mM MgCl2; then 5 uM (800-fold excess) unlabelled SpoIVA; followed over time to 72 h
[2] = target: SpoVM (synthesized 26-amino-acid peptide), adsorbed on spherical supported lipid bilayers (Bacillus subtilis); test: fluorescence microscopy of retention on bead-supported lipid bilayers after competition; 0.006 uM SpoIVA^AF488 adsorbed on SpoVM-SSLBs without ATP in buffer A with 10 mM MgCl2; then 5 uM (800-fold excess) unlabelled SpoIVA; followed over time to 72 h

Sequence of SpoVM (synthesized 26-amino-acid peptide), adsorbed on spherical supported lipid bilayers (Bacillus subtilis) (P37817 whole entry): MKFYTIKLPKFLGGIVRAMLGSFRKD

Q: What does the source list for “SpoIVA^AF488 (His6-tagged cysteine-less SpoIVA variant C98S with a single engineered cysteine at the N terminus, labelled with AlexaFluor 488) (from UniProt P35149 1-492) (natural protein)”?
A: percent of the initial SpoIVA^AF488 still adsorbed after 72 h of competition with unlabelled SpoIVA, with ATP [1]: 81%; percent of the initial SpoIVA^AF488 still adsorbed after 4 h of competition with unlabelled SpoIVA, without ATP [2]: 72%; percent of the initial SpoIVA^AF488 still adsorbed after 72 h of competition with unlabelled SpoIVA, without ATP [2]: 26%
